Test results: patent US20210087268A1

Target: T1, TIGIT expressed on cells (TIGIT-expressing effector cell line of the Promega kit; TIGIT-overexpressing NK92 cell line) (UniProt Q495A1)
T1 sequence (looked up): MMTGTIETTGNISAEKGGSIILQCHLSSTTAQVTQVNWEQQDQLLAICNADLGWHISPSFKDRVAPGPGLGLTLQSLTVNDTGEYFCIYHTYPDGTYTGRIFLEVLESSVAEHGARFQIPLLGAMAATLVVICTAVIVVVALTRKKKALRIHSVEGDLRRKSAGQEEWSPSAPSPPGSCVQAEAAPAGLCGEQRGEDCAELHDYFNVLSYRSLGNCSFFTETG
Test: cell-based or functional assay

10A7 antibody, sequence (VH): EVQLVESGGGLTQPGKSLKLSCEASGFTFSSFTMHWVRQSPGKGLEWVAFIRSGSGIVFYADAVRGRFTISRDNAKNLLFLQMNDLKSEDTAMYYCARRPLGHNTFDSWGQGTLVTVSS
10A7 antibody, sequence (VL): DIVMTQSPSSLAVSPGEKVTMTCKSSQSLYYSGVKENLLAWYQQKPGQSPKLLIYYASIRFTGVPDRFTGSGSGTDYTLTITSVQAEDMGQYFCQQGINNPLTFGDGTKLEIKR

binding inhibition (EC50), TIGIT/CD155 blockade assay, luminescence fold response: 752 nM
Substance: 10A7 antibody
